Consider 25 sequences from the DeepSol protein solubility set.

The nature of the series: soluble on expression in E. coli; label from the status in PepcDB or PDB records.
Take “MGSDKIHHHHHHMIRIGIDVGGTNTDAVVMDGTQVVAGVKSATTADVMSGVVNALKDVLAASRMAASAVDVVMIGTTHFTNAVVQRRDLAPTAAVRLGLPATASLPPMVDWPEDLKTAIGNHAWLAHGGNEFDGRVISPLNEEELLGIAAEIKVRGINSIAITSVLSPVSNEFEKRAAEIFAKALPGAHITLSSDIGRIGLLERENAAIMNACLRDLSAHVIEAFRKAIAETGIRGRFFLTQNDGTLMDAAFAEKFPVLTFASGPTNSMRGAAFLSGVDDAIVVDIGGTTSDVGSLQNGFPRQATVAVEVGGVRTNFRMPDVFSIGLGGGSLVVDGEHGVKVGPTSVGYRINTEALIFGGETLTTTDITVAAGNAELGDKARVAQLPKDLLDRTQAKILSMLEDCVERSRLSPDPLPVIVVGGGSILVNGPIGGLEVIKPNYFGVANAVGAAIAQVSGEIDRVYALAEIGRDQALDDAKARAIDAAVAAGASRDSVEIVDVEDVPLAYLPGNATRVRVKAVGELHVA”: the “soluble on expression in E. coli” value is “not soluble”.
Then “MSLKTERILLPVDGSESSYRAAYCAAQAAQLCGAEVLLLHCVDQTEQNGEAPLVDTTLAEDTTTNRHPKQADALGMATANDLIGPVRDILEDHGIRYMERIVEGEPATCIPRVAQNTRCGLIVMGRSGKTPSGRLPVGSVTGRVVGAAHCPVIVAEGHHHHHH”, with “soluble”; and “MSSVPRFWRNLGSRYNLEGTRCKECGEYFYPPRNVCVNCRRMGELEPFKFKGTGEIVSYTLIHTGAEGFEGQAPYTLAIIKLDEGPRLTSQVVGNTDNIQIGTRVRSVFRKLGEDGERGMIYYGTKFVPVDALEHHHHHH”, with “soluble”.
Then “MLPSISINNTSAAYPESINENNNDEINGLVQEFKNLFNGKEGISTCIKHLLELIKNAIRVNDDPYRSNINNSSVTYIDIGSNDTDHITIGIDNQEPIELPANYKDKELVRTIINDNIVEKTHDINNKEMIFSALKEIYDGDPGFIFDKISHKLRHTVTEFDESGKSEPTDLFTWYGKDKKGDSLAIVIKNKNGNDYLSLGYYDQDDYHIQRGIRINGDSLTQYCSENARSASAWFESSKAIMAESFATGSDHQVVNELNGERLREPNEVFKRLGRAIRYNFQVDDAKFRRDNVKEIISTLFANKVDVDHPENKYKDFKNLEDKVEKRLQNRQTKYQNEINQLSALGVNFDDI”, with “not soluble”.
Next, “MINRNEEQNFNKLSEVINEYNKLQISQQIDYDKFYLYSIITHSTAIEGSTITEIENQLLFDEGISANKPIHEQLMNLDLKAAYEKSFELAKQHTQITPEILCELSVLVMKNTGTVYNTIGGTFSSAKGELRLVNVSAGRGGKSYMAWQKLPQKLEEFCSWLNSERKSIAEKDIEAQYAFSFLAHYKLVHIHPWADGNGRMSRLLMNVIQYEAGLVPAIIKKENRAEYIQSLASSQDKDDPAEFLHFMFSHHIRNLSEQIEEYKNSLEMSGS”: “not soluble”.
Consider “PATSRFYEQHADCLAEQYTSLKFEDVHASWRAFWPQARDRVLDVGAGSGRDAKWMAEHGCEVIAIEPAQALLRFGKSYCGDSVTWLEDGLPKLEKTINLGFRFDLILVSAVWMHLAPTHRERAFRKLANLLAPNGRLVISLRHGDFSDGRKAYPVSVEELEKFAKNRALMVRNVSLDDDQLQ”, for which the “soluble on expression in E. coli” value was “not soluble”.
As to “MIISEFDRNNPVLKDQLSDLLRLTWPEEYGDSSAEEVEEMMNPERIAVAAVDQDELVGFIGAIPQYGITGWELHPLVVESSRRKNQIGTRLVNYLEKEVASRGGITIYLGTDDLDHGTTLSQTDLYEHTFDKVASIQNLREHPYEFYEKLGYKIVGVLPNANGWDKPDIWMAKTIIPRPD”, the “soluble on expression in E. coli” value is listed as “soluble”.
Next, “KNYDLSDLPGPPSKPQVTDVTKNSVTLSWQPGTPGTLPASAYIIEAFSQSVSNSWQTVANHVKTTLYTVRGLRPNTIYLFMVRAINPQGLSDPSPMSDPVRTQD”: “soluble”.
Then “MAHHHHHHSLKTKIIVIVGPTAVGKTALAIEVAKRFNGEVVSGDSQQVYRGLDIGTAKASPEEQAAVPHHLIDVREITESYSAFDFVSEAKMTIEDIHSRGKLAIIAGGTGLYIQSLLEGYHLGGETPHEEILAYRASLEPYSDEELAHLVEQAGLEIPQFNRRRAMRALEIAHFGQDLENQEILYEPLIICLDDERSQLYERINHRVDLMFEAGLLDEAKWLFDHSPNVQAAKGIGYKELFPYFRGEQTFEEARESLKQATRRFAKRQLTWFRNRMQVTFYQIGESGVQDRILSQIEEFLDDEG”, with “not soluble”; and “MMASHSDGKNMAKRKKRTKRGRPRINGCIREPNGRISRTKMPLDPIDKLAIEMRAKRFCLTLQEAKNPLSGTYIGRLYLQGNINQDQYDAAQKYLEVRNDYLCAKTLPSAIYDKMPSSSDEAARKKWVEFATKQFLNMQEVIKETQHLYRQHNFYAALQYLVSEDQELPYLVPSLADSP”, with “not soluble”; and “MAHHHHHHMIFRFYSKLYKHQCAYKNILYNKYHIEKKLEYFYDSIKKNNYSTLYGIKKNDLLNIKKNSGEFLLLSDIFMIKQNNLFLLNNVRRNFYYNTNIIKGIYNDSLFYYDKKYFSGRSGGLKRKKKRKEERIVNTGSAKRLEFFYPKKKRRQRIGLIQNSRKNIVYDNIFKRFLVYHYKQGIQVFRSFSCKKKRNFEAARNKAIILSNQYNKRFNKHNMNDQQRKDTKNIPLNVMDSNLIAKYNNELIKQIKIIPDKNKSGYRGVFYEPSYHAYICIYNEAGVRKFQIFKIQNNDYLEAYHLALMCRRYKLFKNYQFVFQRNRIRSGRIPLK”, with “not soluble”.
In the case of “QVQLQESGPGLVKPSETLSLTCTVSGASISSYYWSWIRQPPGKGLEWIGYIGGEGSTNYNPSLKSRVTISVDTSKNQFSLKLRSVTAADTAVYYCARERLGIGDYWGQGTLVTVSSASTKGPSVFPLAPSSKSTSGGTAALGCLVKDYFPEPVTVSWNSGALTSGVHTFPAVLQSSGLYSLSSVVTVPSSSLGTQTYICNVNHKPSNTKVDKKVEPK”, the “soluble on expression in E. coli” value is “soluble”.
Next, “MWRRHYKLVPQIDTRDCGPAVLASVAKHYGSNYSIAYLRELSKTNKQGTTALGIVEAAKKLGFETRSIKADMTLFDYNDLTYPFIVHVIKGKRLQHYYVVYGSQNNQLIIGDPDPSVKVTRMSKERFQSEWTGLAIFLAPQPNYKPHKGEHHHHHH”: “soluble”.
On to “GTREQALGPALSFSTEGEFLKVRILDPVADSRRYNEEFKAQGLDIELVLIPASPSQVGQADGQLYSGSNTRQRIRFESVPAGCVEAATYPCVPEFTIPKDYRGTARFGINRAAAPGEQYAATGALNGRDEPLEGIQWLNRPVGEISAILRQRGFSITYRWPTGRQNPNATPPPTWYVIEPSFARQNNLVELEVSPRPMK”, for which the “soluble on expression in E. coli” value was “not soluble”.
For “NDAKKYIVSVLILLVAGMFGGCIKEDYSDCPRPFRLTVRAWDADMQDITETGAVQRVVIFVFDETGRRIDRLMMDAAQVAARKPIPLEYDGPTTVSFVAWANPDDHMLEETANVQNVKDLFFRLSSTDGIAQSPGDLFSGVLTCPIEYGSIEQGTDQTVDIYRRTAQVHIIIRGYQEWLEANGPRQLPDYADILLGETPDTYTGLAELIGNAVQYRPDGQIQNGDFISPIFRVYPTLDTTPLHLKLYAYGQELLNISTGSDGVPFIPVIGKMLNIYIDLRGANLNVLVSVTPWDVVQQYAE”, the “soluble on expression in E. coli” value was “not soluble”.
Take “MINQNATYMEESAQSAVDNFGLGFNLGNTLDANGCGTGKPVATYETFWGQPETTQDMMTFLMQNGFNAVRIPVTWYEHMDAEGNVDEAWMMRVKAIVEYAMNAGLYAIVNVHHDTAAGSGAWIKADTDVYAATKEKFKKLWTQIANALADYDQHLLFEGYNEMLDGNNSWDEPQKASGYEALNNYAQDFVDAVRATGGNNATRNLIVNTYAAAKGENVLNNFMLPTDAVNNHLIVQVHSYDPWNFFNTKTTWDSECHNTLTEIFSALSKKFTTIPYIIGEYGTHGESDISVSKSSPAEKIKLAADQAADMVKLAKDHHSATFYWMSIFDGSDRIQPQWSLPTVVEAMQEAYNN”: the “soluble on expression in E. coli” value was “soluble”.
Next, “MNMVSQGVKGGEYRSPQKNYTQLTFKNVDAIGHPQGAISQMLNSTGYYCQSQTTPFVPYFLSSLDFFAWRQAIPEMFYPEALVPGMREIRGNGETWGNIFPRSGAVTQVDDYKASAVSVHRVADFLTRMAQPHIYLPTAKQEQGQNGHWYPDPVQEGEVGNHKWQQLHPQLSQSCSIFPDTPPAQLSENGSYAWALWRPYKCCKRRGQTFLYSVDWSNLEHHHHHH”: “not soluble”; “GSHMEQDLKTLPTTKITCPKCGNDTAYWWEMQTRAGDEPSTIFYKCTKCGHTWRSYE”: “soluble”.
In the case of “MSLRSKLFLILTLHRSGSSATAGVLYHLGVHMGQHLLKENESNPKGHFENEEFVAVNDRILHTIGGSWKKPPSPELIKQLKIPRRQVETFLLQHAKPAWGIKDPRMLLTFDLWKGPMERVADITYIIVHRPIKESIASLVRRNDMTELEAQQILLPYLGNKQRIREQLVEEGADIIDVHFSDLLQHPDELVAAVNQRLGRAPKKRLDDVRLFLDHSLKHEGHHHHHH”, the “soluble on expression in E. coli” value is “soluble”.
Next, “MPLPFSIISTTSQDVLEDADSDEEAETFYVNWITEKNHSFPQSMVLELEEESLVSSVKLIVHKDYPPSSLTVSLGIPSNHFRNSRGKSYNADYSVRQELSFRDDFHVEYGQKHPKATVFFNSPAKFVRISVHGFSDSDVNHHRQVSILSVIISGAGEILPFDSHLKDEPKQTEMSYIELDKGILLPLKSKPKMRETKTIVGLYDTDSEDEEILFSKEMLNRLRKREAVMKNPQLPTTSAITETIAIDTSCEKSAPVSSSSSSKQQSSVSPPLSDRSKKQILDEILGIDEKGNKGKPRKEVYFGSRMSEFNNMLRLLERKREESIWEEKYAQASAIDESVKDLKSREAGLRELIIEREDALKGKDLIAAQR”: “not soluble”.
Next, “MVMAAVIHKKGGPDNFVWEEVKVGSPGPGQVRLRNTAIGVNFLDTYHRAGIPHPLVVGEPPIVVGFEAAAVVEEVGPGVTDFTVGERVCTCLPPLGAYSQERLYPAEKLIKVPKDLDLDDVHLAGLMLKGMTAQYLLHQTHKVKPGDYVLIHAAAGGMGHIMVPWARHLGATVIGTVSTEEKAETARKLGCHHTINYSTQDFAEVVREITGGKGVDVVYDSIGKDTLQKSLDCLRPRGMCAAYGHASGVADPIRVVEDLGVRGSLFITRPALWHYMSNRSEIDEGSKCLFDAVKAGVLHSSVAKTFPLREAAAAHKYMGGRQTIGSIVLLPQA”: “soluble”; “MGKQCFVTGRKASTGNNRSHALNSSKRRWNANLQKVRILVDGKPKKVWVSARALKSGKVTRVLEHHHHHH”: “not soluble”.
Regarding “GPLDLSRDECKRILRKLELEAYAGVISALRAQGDLTKEKKDLLGELSKVLSISTERHRAEVRRAVNDERLTTIAHNMSGPNSSSEWSIEGRRLVPLMPRLVPQTAFTVTANAVANAAIQHNASLPVPAETGSK”, the “soluble on expression in E. coli” value is “soluble”.
On to “MKDSAPELNVSSSETEEDKEEAKPDGEKDPDFNQSNGGTKRQKISHQNYIAYQKQVIRRSMRHRKVRGEKALLVSANQTLKELKIQIMHAFSVAPFDQNLSIDGKILSDDCATLGTLGVIPESVILLKADEPIADYAAMDDVMQGKDEFVLGIC”, for which the “soluble on expression in E. coli” value is “not soluble”.
For the sequence “MSLQTPMQTVDDLRSVCDELPHSLETFPFDDETLVFKVGYLSKSRMYALTDITQDPLRLSLKVDPERGEELRQAHPQSIAPGYHLNKKHWVTVTLDGTVPAELLGELLRGSYLLVTKKGFTKAERKELGLPDSLEGGSHHHHHH”, the “soluble on expression in E. coli” value is recorded as “soluble”.
